In test [1] the target is T1, 5-Helix-His6x (HIV-1).
T1 construct: also called His6-tagged 5-helix; 5-Helix bundle
As to the kind of experiment: Ni-NTA co-purification from E. coli lysate, densitometry of the protein bands.

In test [2] the target is T2, AviTag-5-helix-His6x, biotinylated (HIV-1, biotin conjugated to the AviTag with BirA).
T2 construct: also called Biotinylated 5-helix; AviTagged 5-helix; not shown: N-terminal AviTag and any linker
The test is described as follows: ELISA, biotinylated 5-helix on streptavidin plates, 50 nM GLUE-Cpep pre-incubated in human serum, anti-FLAG detection.

For test [3], the target named is T1, 5-Helix-His6x. The test is described as follows: ELISA on E. coli lysate, His6-tagged 5-helix captured on Ni-NTA plates, anti-FLAG detection.
In test [4] the target is T1, 5-Helix-His6x. As to the kind of experiment: circular dichroism of a 1:1 mixture, wavelength scan and thermal melt.

B1: GLUE-Cpep (untagged) (designed binder)
chain: MEYWHYVETTSSGQPLLREGEKDIAIDQSVGLYHGKSKILQRQRGRIFLTSQRIIYIDDAKPTQNSLGLELDDLAYVNYSSGFLTRSPALILFFKDPSSSTEFVQLSFRKSDGVWFSWATEIALYTILIHSLIEESQNQQEKNEQELL
notes: Co-expressed with 5-Helix-His6x in E. coli; also called untagged GLUE-Cpep
With B1, the “ratio of proteins in the complex (stoichiometry)” value with 5-Helix-His6x [1] was 1 ratio (1:1).

B2: FLAG-GLUE-Cpep (pET-28a construct, His6x-FLAG-GLUE-Cpep) (designed binder)
chain: MGSSHHHHHHSSGLVPRGSHMDYKDDDDKGGSEYWHYVETTSSGQPLLREGEKDIAIDQSVGLYHGKSKILQRQRGRIFLTSQRIIYIDDAKPTQNSLGLELDDLAYVNYSSGFLTRSPALILFFKDPSSSTEFVQLSFRKSDGVWFSWATEIALYTILIHSLIEESQNQQEKNEQELL
notes: Purified, pre-incubated with human serum, then tested in ELISA on biotinylated 5-helix
Consider B2, for which the binding result in test [2] is listed as “binds”.

B3: FLAG-CHR (peptide)
peptide: MDYKDDDDKGGSWMEWDREINNYTSLIHSLIEESQNQQEKNEQELL
notes: Co-expressed with 5-Helix-His6x in E. coli; also called C-peptide; native C-peptide
Take B3: the binding result with 5-Helix-His6x [3] is “binds”.

B4: His6x-GLUE-Cpep (designed binder)
chain: MGSSHHHHHHSQDPGLNDIFEAQKIEWHEGGSGGSGGTEYWHYVETTSSGQPLLREGEKDIAIDQSVGLYHGKSKILQRQRGRIFLTSQRIIYIDDAKPTQNSLGLELDDLAYVNYSSGFLTRSPALILFFKDPSSSTEFVQLSFRKSDGVWFSWATEIALYTILIHSLIEESQNQQEKNEQELL
notes: Purified construct used in CD; also called helix-grafted GLUE
As to B4, the binding result with 5-Helix-His6x [4] was “binds”.

B5: FLAG-GLUE-Cpep (designed binder)
chain: MDYKDDDDKGGSEYWHYVETTSSGQPLLREGEKDIAIDQSVGLYHGKSKILQRQRGRIFLTSQRIIYIDDAKPTQNSLGLELDDLAYVNYSSGFLTRSPALILFFKDPSSSTEFVQLSFRKSDGVWFSWATEIALYTILIHSLIEESQNQQEKNEQELL
notes: Co-expressed with 5-Helix-His6x in E. coli; lysate ELISA; also called grafted GLUE; helix-grafted GLUE
Turning to B5, the binding result with 5-Helix-His6x [3] was “binds”.

B6: FLAG-GLUE (other)
chain: MDYKDDDDKGGSEYWHYVETTSSGQPLLREGEKDIFIDQSVGLYHGKSKILQRQRGRIFLTSQRIIYIDDAKPTQNSLGLELDDLAYVNYSSGFLTRSPALILFFKDPSSSTEFVQLSFRKSDGVLFSQATERALENILT
notes: Co-expressed with 5-Helix-His6x in E. coli; lysate ELISA; also called wtGLUE; wt-GLUE
For the molecule B6, the binding result with 5-Helix-His6x [3] was “no binding”.

These data come from patent US20160152676A1 (COLORADO STATE UNIVERSITY RESEARCH FOUNDATION, published 2016).
